Results: the supplement of paper PMC10567573

B1: PTPRD (parent)
chain: LTKLREMGREKCHQYWPAERSARY
B2: LCOR (parent)
chain: PCAGSTSLSHSPGCSSTQGNGRPG

Variants of: B1
Assay: protein stability index of a GFP-peptide fusion (GPS, HEK-293T) (PSI 1-6); higher = more stable
Settings: c terminus: a fixed tail appended
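Further: lentivirally expressed fusions sorted by FACS into six bins by GFP to DsRed ratio, PSI derived from sequencing read proportions per bin multiplied by bin number.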

Protein stability index: each site, then its substitutions
W16: P 3.27, Y 2.58, T 2.6, N 3.5, F 2.91, E 3.47, H 2.91, G 3.25, L 2.96, C 2.8, R 3.29, M 2.85, S 2.84, Q 3.26, K 3.03, D 3.8, V 2.76, I 2.7, A 3.15
G8: L 1.67, V 2.58, F 1.73, S 1.94, T 2.95, H 1.93, Q 3.13, P 2.44, R 2.53, A 2.02, E 2.65, W 1.85, N 2.29, M 2.07, C 2.39, K 2.04, Y 2.03, I 1.29, D 3.22
R20: A 2.05, D 2.92, E 2.69, Q 2.38, L 2.34, C 2.42, W 1.51, T 2.66, H 2.2, K 2.28, V 2.03, Y 2.33, M 2.25, P 2.77, N 2.62, S 2.3, F 1.93, G 2.88, I 1.86
P17: G 2.29, F 1.99, V 1.74, H 1.75, T 2.32, D 2.79, L 2.01, N 1.84, E 2.5, S 2.09, K 2.58, Y 2.17, A 2.12, W 2.04, I 2.25, Q 2.16, R 2.37, M 1.97, C 1.79
Q14: P 1.69, T 2.62, K 2.48, S 2.68, N 2.64, C 1.82, D 2.47, V 2.61, W 1.41, I 2.27, M 2.04, L 2.5, R 2.04, G 2.46, F 1.84, A 2.46, H 2.95, E 3.05, Y 1.85
E10: F 2.13, L 1.99, G 2.25, K 2.03, A 2.08, R 2.42, D 2.3, S 2.3, P 2.71, H 2.05, T 1.87, V 2.28, I 1.91, C 2.65, Q 1.97, W 2.15, Y 2.48, N 2.46, M 1.83
Y15: L 2.46, M 2.53, Q 2.79, T 2.82, R 2.82, N 3.19, S 2.92, F 2.86, W 1.99, G 3.46, C 2.6, A 2.93, E 3.54, D 3.31, K 3.1, P 2.64, I 2.59, H 3.41
H13: W 1.77, C 1.86, F 2.15, L 2.77, E 2.74, K 2.53, I 2.33, N 2.79, Y 2.38, A 2.66, R 2.31, V 2.02, P 2.43, T 2.65, Q 2.83, D 3.17, M 1.97, G 2.66, S 2.28
R9: F 2.38, C 2.15, T 2.65, P 2.53, V 1.92, H 2.73, Y 2.16, I 2.29, K 2.84, E 2.86, G 2.79, D 3.48, N 2.68, M 2.8, S 2.81, Q 3.05, W 2.04, L 2.73, A 2.64
Y24: V 2.41, P 2.5, N 3.2, L 2.31, H 2.75, G 2.67, M 2.12, D 3.55, S 3.01, I 2.29, R 2.7, E 3.1, T 2.35, F 2.21, C 2.65, W 2.46, A 2.59, K 3.02, Q 2.65
R23: H 2.26, T 2.4, Q 1.74, D 3.39, N 2.24, K 2.49, L 2.09, Y 1.6, P 3.02, A 2.42, W 1.68, G 2.38, C 2.06, S 1.96, M 1.69, E 2.67, I 1.99, F 1.79, V 1.85
C12: L 2.39, D 3.48, E 3.11, S 2.66, G 2.98, Y 2.98, R 2.51, T 3.38, N 3.04, M 2.1, I 2.35, H 2.83, A 3.2, V 2.35, Q 2.83, K 2.27, W 2.25, F 2.58, P 3.09
E19: I 1.91, V 1.67, R 2.56, Y 1.86, M 2.19, L 1.7, C 2.21, G 2.18, Q 2.2, W 2.15, N 2.46, S 2.29, H 2.06, A 2.31, D 2.81, F 2.29, P 2.29, T 2.21, K 2.75
A18: W 2.16, K 2.48, T 2.27, M 1.97, H 2.19, R 2.13, N 2.16, V 2.26, S 2.17, P 2.39, Q 2.53, L 1.87, D 2.49, G 2.06, Y 1.97, F 2.21, E 2.73, C 2.31, I 2.21
S21: L 1.96, Y 2.61, W 1.94, A 2.58, M 1.96, N 2.17, V 2.17, H 1.91, I 2.99, G 1.91, K 2.72, R 2.16, P 2.24, E 2.15, C 1.7, Q 2.08, F 2, D 2.83, T 2.77
K11: R 2.26, T 2.5, N 2.74, E 3.17, D 3.21, Y 2.39, M 2.64, I 2.53, C 2.34, H 2.4, W 1.89, Q 2.44, G 2.61, V 2.53, S 2.4, P 2.6, A 3.23, F 2.14, L 2.21
A22: D 2.4, R 2.42, E 2.53, L 2.12, K 2.65, T 3.02, M 2.33, H 2.21, P 2.65, G 2.33, S 2.16, V 2.64, Q 2.54, F 1.58, I 2.08, W 1.83, N 2.57, C 2.15, Y 2.23
M7: Y 2.7, V 2.56, W 1.67, T 2.71

Variants of: B2
Assay: as above
Settings: c terminus: a fixed tail appended

Protein stability index, by site and new letter:
P1: C 4.16, I 3.48, H 2.48, K 4.35, A 2.61, D 4.08, E 3.77, F 3.04
